# Data: patent US8475791B2, “Anti-IL-TIF antibodies and methods of use” (ZymoGenetics, Inc., priority 1999, dated 2013)
# T1: ZCYTO18 (Homo sapiens, UniProt Q9GZX6)
# T1 sequence (Q9GZX6 34-179): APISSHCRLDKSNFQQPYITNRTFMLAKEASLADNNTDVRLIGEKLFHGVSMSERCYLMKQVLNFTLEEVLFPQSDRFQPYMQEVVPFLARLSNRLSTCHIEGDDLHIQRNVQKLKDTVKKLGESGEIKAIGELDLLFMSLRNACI
# Assays:
# [1] = K-562 cytotoxicity assay (MTT); assay type: cell-based, human; settings: human, K-562 cells, 100 uM, MTT absorbance
# Method: (§1) The K-562 cell line (CRL-243, ATCC) has attained widespread use as a highly sensitive in vitro target for cytotoxicity assays. K-562 blasts are multipotential, hematopoietic malignant cells that spontaneously differentiate into recognizable progenitors of the erythrocytic, granulocytic and monocytic series (Lozzio, B B et al., Proc. Soc. Exp. Biol. Med. 166: 546-550, 1981).
# (§2) K562 cells were plated at 5,000 cells/well in 96-well tissue culture clusters (Costar) in DMEM phenol-free growth medium (Life Technologies) supplemented with pyruvate and 10% serum (HyClone). Next day, human recombinant ZCYTO18 (Example 19), BSA control or retinoic acid (known to be cytotoxic to K562 cells) were added. Seventy-two hours later, the vital stain MTT (Sigma, St Louis, Mo.), a widely used indicator of mitochondrial activity and cell growth, was added to the cells at a final concentration of 0.5 mg/ml. MTT is converted to a purple formazan derivative by mitochondrial dehydrogenases. Four hours later, converted MTT was solubilized by adding an equal volume of acidic isopropanol (0.04N HCl in absolute isopropanol) to the wells. Absorbance was measured at 570 nm, with background subtraction at 650 nm. In this experimental setting, absorbance reflects cell viability. Results shown in Table 7 are expressed as % cytotoxicity.
# ZCYTO18 = biological target: T1, ZCYTO18; settings: commonly owned PCT/US00/32703; cited from earlier work
# [2] = test system: BaF3/CRF2-4/zcytor11 cells; experiment: Alamar Blue proliferation assay, BaF3/CRF2-4/zcytor11 cells; assay type: cell-based, murine; settings: for proliferative response (in words): 0.06-50 ng/ml, media without IL-3
# Method: BaF3/CRF2-4/zcytor11 cells were spun down and washed in the complete media, described in Example 21A above, but without mIL-3 (hereinafter referred to as “mIL-3 free media”). The cells were spun and washed 3 times to ensure the removal of the mIL-3. Cells were then counted in a hemacytometer. Cells were plated in a 96-well format at 5000 cells per well in a volume of 100 μl per well using the mIL-3 free media.
# Proliferation of the BaF3/CRF2-4/zcytor11 cells was assessed using ZCYTO18-CEE protein diluted with mIL-3 free media to 50, 10, 2, 1, 0.5, 0.25, 0.13, 0.06 ng/ml concentrations. 100 μl of the diluted protein was added to the BaF3/CRF2-4/zcytor11 cells. The total assay volume is 200 μl. The assay plates were incubated at 37° C., 5% CO2 for 3 days at which time Alamar Blue (Accumed, Chicago, Ill.) was added at 20 μl/well. Plates were again incubated at 37° C., 5% CO2 for 24 hours. Alamar Blue gives a fluourometric readout based on number of live cells, and is thus a direct measurement of cell proliferation in comparison to a negative control. […]. Plates were read on the Finax™ plate reader (Molecular Devices Sunnyvale, Calif.) using the SoftMax™ Pro program, at wavelengths 544 (Excitation) and 590 (Emmission). […] The response, as measured, was approximately 15-fold over background at the high end of 50 ng/ml down to a 2-fold induction at the low end of 0.06 ng/ml.
# BaF3 wild type cells = experiment: Alamar Blue proliferation assay, BaF3 wild type cells; assay type: cell-based, murine; settings: mIL-3 free media
# BaF3/CRF2-4 cells = experiment: Alamar Blue proliferation assay, BaF3/CRF2-4 cells; assay type: cell-based, murine; settings: mIL-3 free media
# Method: BaF3, an interleukin-3 (IL-3) dependent pre-lymphoid cell line derived from murine bone marrow (Palacios and Steinmetz, Cell 41: 727-734, 1985; Mathey-Prevot et al., Mol. Cell. Biol. 6: 4133-4135, 1986), was maintained in complete media (RPMI medium (JRH Bioscience Inc., Lenexa, Kans.) supplemented with 10% heat-inactivated fetal calf serum, 2 ng/ml murine IL-3 (mIL-3) (R & D, Minneapolis, Minn.), 2 mM L-glutaMax-1™ (Gibco BRL), 1 mM Sodium Pyruvate (Gibco BRL), and PSN antibiotics (GIBCO BRL)). Prior to electroporation, CRF2-4/pZP7P was prepared and purified using a Qiagen Maxi Prep kit (Qiagen) as per manufacturer's instructions. […]
# BaF3/CRF2-4/zcytor11 cells were spun down and washed in the complete media, described in Example 21A above, but without mIL-3 (hereinafter referred to as “mIL-3 free media”). […] Cells were then counted in a hemacytometer. […]
# Proliferation of the BaF3/CRF2-4/zcytor11 cells was assessed using ZCYTO18-CEE protein diluted with mIL-3 free media to 50, 10, 2, 1, 0.5, 0.25, 0.13, 0.06 ng/ml concentrations. […] Alamar Blue gives a fluourometric readout based on number of live cells, and is thus a direct measurement of cell proliferation in comparison to a negative control. […] Plates were read on the Finax™ plate reader (Molecular Devices Sunnyvale, Calif.) using the SoftMax™ Pro program, at wavelengths 544 (Excitation) and 590 (Emmission). […]
# K-562 cells = experiment: K-562 cytotoxicity assay (MTT); assay type: cell-based, human; settings: 72 hours, MTT absorbance
# Method: as §1, §2
molecule,measurement,setting,value
"CC1=C(/C=C/C(C)=C/C=C/C(C)=C/C(=O)O)C(C)(C)CCC1 [Retinoic acid, reference compound]","cytotoxicity at 72 h, 100 µM",[1],62%
"zcytor16: naturally-expressed soluble receptor antagonist of ZCYTO18 (SEQ ID NO:32, SEQ ID NO:33) (protein, listed as Homo sapiens) MMPKHCFLGFLISFFLTGVAGTQSTHESLKPQRVQFQSRNFHNILQWQPGRALTGNSSVYFVQYKIYGQRQWKNKEDCWGTQELSCDLTSETSDIQEPYYGRVRAASAGSYSEWSMTPRFTPWWETKIDPPVMNITQVNGSLLVILHAPNLPYRYQKEKNVSIEDYYELLYRVFIINNSLEKEQKVYEGAHRAVEIEALTPHSSYCVVAEIYQPMLDRRSQRSEERCVEIP",binding of ZCYTO18 and antagonism of its activity,ZCYTO18,bind ZCYTO18 and antagonize its activity
"ZCYTO18-CEE: ZCYTO18 polypeptide containing C-terminal GluGlu (EE) tag (SEQ ID NO:14), purified from BHK 570 or Sf9 cells (protein) APISSHCRLDKSNFQQPYITNRTFMLAKEASLADNNTDVRLIGEKLFHGVSMSERCYLMKQVLNFTLEEVLFPQSDRFQPYMQEVVPFLARLSNRLSTCHIEGDDLHIQRNVQKLKDTVKKLGESGEIKAIGELDLLFMSLRNACIEYMPME",proliferative response over background,"[2]; 50 ng/ml, mIL-3 free media, 3 days then Alamar Blue",approximately 15 fold
same,proliferative response (in words),[2],dose-dependent proliferative response
same,proliferation in response to ZCYTO18-CEE,BaF3 wild type cells,did not proliferate
same,proliferation in response to ZCYTO18-CEE,BaF3/CRF2-4 cells,did not proliferate
"ZCYTO18: novel four-helical-bundle cytokine polypeptide, SEQ ID NO:3; annotated in the literature as IL-TIF (protein, listed as Homo sapiens) MGTLATSCLLLLALLVQGGAAAPISSHCRLDKSNFQQPYITNRTFMLAKEASLADNNTDVRLIGEKLFHGVSMSERCYLMKQVLNFTLEEVLFPQSDRFQPYMQEVVPFLARLSNRLSTCHIEGDDLHIQRNVQKLKDTVKKLGESGEIKAIGELDLLFMSLRNACI",proliferative response (in words),[2],dose-dependent proliferative response
same,% Cytotoxicity,K-562 cells; 100 ng/ml,16.2%
same,% Cytotoxicity,K-562 cells; 300 ng/ml,32%
